Experimental findings from paper PMC8873477, “Structural basis of adenylyl cyclase 9 activation” (Nature Communications, 2022) are described below.

The target in the assay is T1, C-terminally truncated bovine AC9_(1250) (residues 1-1250 of AC9) (bovine, UniProt E1BM79 1-1250).
T1 construct: the purification is said to be identical to that of AC9; source: HEK293F cells, transient transfection (PEI), purified as AC9
T1 sequence (looked up): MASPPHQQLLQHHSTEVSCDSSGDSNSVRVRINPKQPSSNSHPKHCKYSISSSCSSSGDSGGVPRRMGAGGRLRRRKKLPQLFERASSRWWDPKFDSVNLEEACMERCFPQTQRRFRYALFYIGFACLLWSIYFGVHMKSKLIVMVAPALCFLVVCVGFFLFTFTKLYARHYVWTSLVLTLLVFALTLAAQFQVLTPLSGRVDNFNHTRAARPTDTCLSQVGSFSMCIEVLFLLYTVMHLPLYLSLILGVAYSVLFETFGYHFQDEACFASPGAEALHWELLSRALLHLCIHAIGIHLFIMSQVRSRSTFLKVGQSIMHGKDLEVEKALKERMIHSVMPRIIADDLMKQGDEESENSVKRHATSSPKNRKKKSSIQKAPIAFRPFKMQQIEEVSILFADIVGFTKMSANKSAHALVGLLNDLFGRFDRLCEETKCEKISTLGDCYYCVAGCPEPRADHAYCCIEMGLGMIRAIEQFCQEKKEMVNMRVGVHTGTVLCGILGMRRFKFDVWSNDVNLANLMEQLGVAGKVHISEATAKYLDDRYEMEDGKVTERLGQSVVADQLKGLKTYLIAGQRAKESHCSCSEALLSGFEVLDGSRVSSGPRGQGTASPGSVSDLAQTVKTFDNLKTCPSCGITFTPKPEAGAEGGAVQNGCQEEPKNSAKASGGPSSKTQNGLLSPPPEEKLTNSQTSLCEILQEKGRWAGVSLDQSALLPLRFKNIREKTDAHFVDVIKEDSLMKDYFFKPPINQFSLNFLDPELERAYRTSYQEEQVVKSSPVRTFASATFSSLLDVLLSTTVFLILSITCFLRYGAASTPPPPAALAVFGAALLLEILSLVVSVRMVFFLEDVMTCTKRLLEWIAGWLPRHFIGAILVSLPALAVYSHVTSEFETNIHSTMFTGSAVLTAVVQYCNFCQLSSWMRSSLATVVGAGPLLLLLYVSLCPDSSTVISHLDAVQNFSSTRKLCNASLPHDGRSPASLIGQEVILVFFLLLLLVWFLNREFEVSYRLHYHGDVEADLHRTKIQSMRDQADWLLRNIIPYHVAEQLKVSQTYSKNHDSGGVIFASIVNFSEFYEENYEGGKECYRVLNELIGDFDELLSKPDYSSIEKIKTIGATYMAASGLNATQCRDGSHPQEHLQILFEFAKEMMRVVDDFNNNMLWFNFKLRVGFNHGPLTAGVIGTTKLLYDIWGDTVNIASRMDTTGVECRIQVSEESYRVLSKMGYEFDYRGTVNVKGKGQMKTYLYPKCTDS
In words: cryo-EM structure; AC9_(1250) at 5 mg/ml with 5 mM MnCl2, 0.5 mM MANT-GTP and a 2-fold molar excess of GTPγS-activated Gαs, 30 min at 4 °C; no forskolin; soluble part refined to 3.8 Å. The settings on record: both partners purified.

B1: bovine Gαs (G protein αs subunit), GTPγS-activated (natural protein, UniProt P04896-1 1-394, looked up)
chain: MGCLGNSKTEDQRNEEKAQREANKKIEKQLQKDKQVYRATHRLLLLGAGESGKSTIVKQMRILHVNGFNGEGGEEDPQAARSNSDGEKATKVQDIKNNLKEAIETIVAAMSNLVPPVELANPENQFRVDYILSVMNVPDFDFPPEFYEHAKALWEDEGVRACYERSNEYQLIDCAQYFLDKIDVIKQDDYVPSDQDLLRCRVLTSGIFETKFQVDKVNFHMFDVGGQRDERRKWIQCFNDVTAIIFVVASSSYNMVIREDNQTNRLQEALNLFKSIWNNRWLRTISVILFLNKQDLLAEKVLAGKSKIEDYFPEFARYTTPEDATPEPGEDPRVTRAKYFIRDEFLRISTASGDGRHYCYPHFTCAVDTENIRRVFNDCRDIIQRMHLRQYELL
notes: bovine Gαs, Uniprot ID P04896-1; also called G protein α subunit; source: High Five insect cells, baculovirus, purified (Ni-NTA, Superdex 200 SEC)
B1: the binding result is given as “binds”.
